Experimental data: publication doi:10.1101/756932 (bioRxiv, 2019)

Legend:
[1] = molecular target: ERK (endogenous, mouse ME cells) (mouse (endogenous in ESC-derived ME cells)) (UniProt Q63844); test: proximity ligation
[2] = molecular target: Aurora B (endogenous, mouse cells) (mouse (endogenous in E14 ESCs), UniProt O70126 1-345); test: proximity ligation
Sequence of Aurora B (endogenous, mouse cells) (O70126 whole entry): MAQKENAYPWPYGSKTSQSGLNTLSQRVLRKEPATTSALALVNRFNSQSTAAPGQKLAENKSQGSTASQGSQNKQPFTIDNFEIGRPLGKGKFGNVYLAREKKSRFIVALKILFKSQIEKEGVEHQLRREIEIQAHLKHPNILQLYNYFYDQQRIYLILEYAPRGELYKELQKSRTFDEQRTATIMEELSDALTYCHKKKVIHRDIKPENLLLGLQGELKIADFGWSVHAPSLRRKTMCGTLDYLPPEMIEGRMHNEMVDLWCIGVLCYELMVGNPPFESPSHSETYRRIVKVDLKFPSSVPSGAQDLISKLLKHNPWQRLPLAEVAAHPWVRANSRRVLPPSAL

Sequence of ERK (endogenous, mouse ME cells) (mouse (endogenous in ESC-derived ME cells)) (Q63844 whole entry): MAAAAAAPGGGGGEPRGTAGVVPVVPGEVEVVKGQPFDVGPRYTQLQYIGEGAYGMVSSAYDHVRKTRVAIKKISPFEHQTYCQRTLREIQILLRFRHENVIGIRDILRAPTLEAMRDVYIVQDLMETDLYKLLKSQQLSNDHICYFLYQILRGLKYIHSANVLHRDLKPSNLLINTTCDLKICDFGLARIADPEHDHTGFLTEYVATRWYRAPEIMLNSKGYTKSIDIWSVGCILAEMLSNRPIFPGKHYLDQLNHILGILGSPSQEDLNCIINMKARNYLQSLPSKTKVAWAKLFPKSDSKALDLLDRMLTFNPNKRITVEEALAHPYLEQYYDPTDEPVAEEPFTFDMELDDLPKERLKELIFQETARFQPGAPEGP

B1: CNOT3-T292A/S294A (endogenous, Cnot3-DM mouse ESCs) (natural protein, mouse (endogenous in E14 ESCs), UniProt Q8K0V4 1-751, looked up)
chain: MADKRKLQGEIDRCLKKVSEGVEQFEDIWQKLHNAANANQKEKYEADLKKEIKKLQRLRDQIKTWVASNEIKDKRQLIENRKLIETQMERFKVVERETKTKAYSKEGLGLAQKVDPAQKEKEEVGQWLTNTIDTLNMQVDQFESEVESLSVQTRKKKGDKDKQDRIEGLKRHIEKHRYHVRMLETILRMLDNDSILVDAIRKIKDDVEYYVDSSQDPDFEENEFLYDDLDLEDIPQALVATSPPSHSHMEDEIFNQSSSTPTSTTSSSPIPPSPANCTTENSEDDKKRGRSADAEVSQSPAKNGSKPVHSNQHPQSPAVPPTYPSGPPPTTSALSSTPGNNGASTPAAPTSALGPKASPAPSHNSGTPAPYAQAVAPPNASGPSNAQPRPPSAQPSGGSGGGSGGSSSNSNSGTGGGAGKQNGATSYSSVVADSPAEVTLSSSGGSSASSQALGPTSGPHNPAPSTSKESSTAAPSGAGNVASGSGNNSGGPSLLVPLPVNPPSSPTPSFSEAKAAGTLLNGPPQFSTTPEIKAPEPLSSLKSMAERAAISSGIEDPVPTLHLTDRDIILSSTSAPPTSSQPPLQLSEVNIPLSLGVCPLGPVSLTKEQLYQQAMEEAAWHHMPHPSDSERIRQYLPRNPCPTPPYHHQMPPPHSDTVEFYQRLSTETLFFIFYYLEGTKAQYLAAKALKKQSWRFHTKYMMWFQRHEEPKTITDEFEQGTYIYFDYEKWGQRKKEGFTFEYRYLEDRDLQ
With B1 the fold reduction of PLA interaction foci in the cytoplasm against wild-type cells [1] was 3 fold, the fold reduction of PLA interaction foci in the nucleus against wild-type cells [1] was 5 fold and the “fold increase of PLA interaction against wild-type cells” value [2] was roughly 3 fold.
